The source of these data is patent WO2021228904A1 (dated 2021).

Some results are limits rather than exact numbers.

One may read the Kd as the constant that tells how readily two partners part at equilibrium.

To fix the notation:
B1: SEQ ID NOs: 453/457 (HCVR/LCVR) (antibody, V domains shown)
VH: EVQLVESGVEVKKPGASVKVSCKAFGYTFTGQDMHWVRQAPGQGLEWMGWINPSSAGTNYAQKFQGRVTMTRDTSISTAYMELSRLRSDDTSVYYCRKMLTIFGKVNQTMLLISGAKGQWSPSLQWGQGTMVTVSS
VL: DIVMTQTPLSLSVTPGQPASISCKSGQSLLHSDGKTYLYWYLQKPGQPPQLLIYEVSNRFSGVPDRFSGSGSGTDFTLKISRVEAEDVGVYYCMQSIQLPPTFGQGTKVEIK
B2: SEQ ID NOs: 201/205 (HCVR/LCVR) (antibody, V domains shown)
VH: QLQLQESGPGLVKPSQTLSLTCTVSGGSISSGGYYWSWIRQLPGKGLEWIGYIYYSGSTYYNPSLKSRVTISVDTSKNQFSLNLSSVTAADTAVYYCARQQLDYYDSSGCFDYWGQGTLVTVSS
VL: DIVMTQSPSFLSASVGDRVTITCRASQGISSYLAWYQQKPGKAPKLLIYAASTLQSGVPSRFSGSGSGTEFTLTISSLQPEDFATYYCQQLHSYPLTFGGGTKVDIK
B3: SEQ ID NOs: 429/433 (HCVR/LCVR) (antibody, V domains shown)
VH: EVQLVESGGGVVQPGRSLRLSCAASGFTFSSYGMHWVRQAPGKGLEWVAVIWYDGSNKYYADSVKGRFTISRDNSKNTLYLQMDSLRAEDTAMYYCAKDKAPPCSSGWYYFDYWGQGTLVTVSS
VL: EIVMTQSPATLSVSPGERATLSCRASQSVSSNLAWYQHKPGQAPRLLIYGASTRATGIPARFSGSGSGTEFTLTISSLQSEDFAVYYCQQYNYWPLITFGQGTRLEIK
B4: SEQ ID NOs: 405/409 (HCVR/LCVR) (antibody, V domains shown)
VH: EVQLVESGAEVKKPGASVKVSCKVSGYTLPELSMHWVRQTPGKGLEWMGGFDPEDGETIYAQKFQGRVTMTEDTSTDTAYMELSSLRSEDTAVYYCATGPTIAAAATNWFDPGGQGTLVTVSS
VL: QPVLTQPASVSGSPGQSITISCTGTSSDVGGYNYVSWYQQHPGKAPKLMIYDVSNRPSGVSNRFSGSRSGDTASLTISGLQAEDEADYYCSSYTSSSTWVFGGGTKLTVL
B5: SEQ ID NOs: 533/537 (HCVR/LCVR) (antibody, V domains shown)
VH: EVQLVESGGGLVKPGGSLRLSCSASGFTFSNYNMDWVRQAPGKGLEWVSSISSSSSYIYLADSVKGRFTISRDNAKNSLYLQMNSLRAEDTAVYYCARVQKDIVVVPVALADYYYYGMDVWGQGTTVTVSS
VL: DIVMTQSPATLSVSPGERATLSCRASQSVSSNLAWYQQKPGQAPRLLIYGASTRATGIPARFSGSGSGTEFTLTISSLQPEDFAVYYCQQCYNWPPWTFGQGTRVEFK
B6: SEQ ID NOs: 445/449 (HCVR/LCVR) (antibody, V domains shown)
VH: EVQLVESGPGLVKPSQTLSLTCTVSGGSISSGDYYWSWIRQPPGKGLEWIGYIYYSGSTYYNPSLKSRVTISVDTSKNQFSLKLSSVTAADTAVYYCARGVEDPVVPAAIPWCWFDPWGQGTRVTVSS
VL: QSVLTQPPSVSVAPGQTARITCGGNNIGSKSVHWYQQKPGQAPVLVVYDDSDRPSGIPERFSGSNSGNTATLTISRVEAGDEADYYCQVWASSSVVFGGGTKLTVL
B7: SEQ ID NOs: 49/53 (HCVR/LCVR) (antibody, V domains shown)
VH: QVQLVESGAEVKKPGSSVKVSCKASGGTLSSYAITWVRQAPGQGLEWVGGIIPIFGTANYAQKFQGRVTITADESTSTAYMELSSLRSEDTAVYYCARVGAYDSSGYSNDYWGQGTLVTVSS
VL: DIQLTQSPATLSLSPGERATLSCRASQSVSSYLAWYQQKPGQAPRLLIYDASNRATGIPARFSGSGSGTDFTLTISSLEPEDFAVYYCQQRSNWPPRVTFGGGTKVEIK
B8: SEQ ID NOs: 573/577 (HCVR/LCVR) (antibody, V domains shown)
VH: QVQLQESGPGLVKPSETLSLTCTASGGSISSSSYYWGWIRQPPGKGLEWIGSIYYSGSTYYNPSLKSRVTISVDTSKNQFSLKLSSVTAADTAVYYCARHPSGLYQLLNWGQGTLVTVSS
VL: AIRMTQSPSSLSASVGDRVTITCQASQDISNYLNWYQQKPGKAPKLLIYDASNLETGVPSRFSGSGSGTDFTFTISSLQPEDIATYYCQQYDNLLSLTFGGGTKVEIK
B9: COVA2-07 (antibody, V domains shown)
VH: EVQLVETGGGLIQPGGSLRLSCAASGLTVSSNYMNWVRQAPGKGLEWVSVIYSGGSTYYADSVKGRFTISRDNSKNTLYLQMNSLRAEDTAVYYCAREAYGMDVWGQGTMVTVSS
VL: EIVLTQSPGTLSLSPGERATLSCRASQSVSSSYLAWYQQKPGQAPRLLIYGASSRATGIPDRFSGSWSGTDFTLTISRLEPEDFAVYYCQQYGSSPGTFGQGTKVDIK
B10: SEQ ID NOs: 213/209 (HCVR/LCVR) (antibody, V domains shown)
VH: EVQLVESGPGLVKPSETLSLTCTVSGGSISSYYWSWIRQPPGKRLEWIGYIYYSGSTNYNPSLKSRVTISVDTSKNQFSLKLNSVTAADTAAYYCARGFDYWGQGTRVTVSS
VL: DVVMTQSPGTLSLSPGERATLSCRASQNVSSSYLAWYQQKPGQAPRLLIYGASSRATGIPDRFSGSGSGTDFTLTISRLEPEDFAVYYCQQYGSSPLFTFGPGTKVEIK
B11: 002_P1H10 (antibody, V domains shown)
VH: QVQLVETGGGLIQPGGSLRLSCAASGFTVSSNYMSWVRQAPGKGLEWVSVIYSGGSTYYADSVKGRFTISRDNSKNTLYLQMNSLRAEDTAVYYCARDLDTMGGMDVWGQGTRVTVSS
VL: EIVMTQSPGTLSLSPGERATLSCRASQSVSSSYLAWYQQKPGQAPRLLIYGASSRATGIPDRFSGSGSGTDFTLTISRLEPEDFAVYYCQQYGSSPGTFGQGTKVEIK
B12: SEQ ID NOs: 629/633 (HCVR/LCVR) (antibody, V domains shown)
VH: QVQLVESRAEVKKPGSSVKVSCKASGGTFSSYAISWVRQAPGQGLEWMGRIIPILGITNYAQKFQGRVTITADKSTSTAYMELSSLRSEDTAVYYCARDAPDYYDSSGPTYFDYWGQGTLVTVSS
VL: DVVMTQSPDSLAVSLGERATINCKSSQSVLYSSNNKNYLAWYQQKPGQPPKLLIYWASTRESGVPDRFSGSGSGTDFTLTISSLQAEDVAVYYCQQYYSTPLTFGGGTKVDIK
B13: SEQ ID NOs: 397/401 (HCVR/LCVR) (antibody, V domains shown)
VH: EVQLVQSGAEVKKPGESLRISCKGSGYSFTSYWISWVRQMPGKGLEWMGRIDPSDSYTNYSPSFQGHVTISADKSISTAYLQWSSLKASDTAMYYCARPNPAGGYDSSGWVDAFDIWGQGTRVTVSS
VL: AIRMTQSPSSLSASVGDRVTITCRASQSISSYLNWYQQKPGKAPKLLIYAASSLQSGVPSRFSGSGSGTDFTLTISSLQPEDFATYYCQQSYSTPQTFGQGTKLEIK
B14: COVA1-22 (antibody, V domains shown)
VH: EVQLVESGAEVKKPGASVKVSCKASGYTFTSYGISWVRQAPGQGLEWMGWISAYNGYTNSAQKLQGRVTMTTDTSTSTAYMELRSLRSDDTAVYYCARDLVDTAMVQTLDDYGMDVWGQGTMVTVSS
VL: not shown
B15: SEQ ID NOs: 565/569 (HCVR/LCVR) (antibody, V domains shown)
VH: EVQLLESGAEVKKPGASVKISCKASGYTFTGYYMHWVRQAPGQGLEWMGWINPNSGGTNYAQKFQGRVTMTRDTSISTAYMELSRLRSDDTAVYYCARGDGDYYDSSGYYRPTLYNWLDPWGQGTRVTVSS
VL: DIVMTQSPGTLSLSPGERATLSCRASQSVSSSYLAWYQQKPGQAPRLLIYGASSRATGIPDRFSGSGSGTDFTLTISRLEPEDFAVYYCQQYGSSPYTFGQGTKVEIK
B16: SEQ ID NOs: 153/157 (HCVR/LCVR) (antibody, V domains shown)
VH: QVQLVESGGGLVKPGGSLRLSCAASGFTFSSYSMNWVRQAPGKGLEWVSSISSSSSYIYYADSVKGRFTISRDDAKNSLFLQMNSLRAEDTAVYYCAGDQNLYCSGDSCYYHYYGMDVWGQGTVVTVSS
VL: NFMLTQPPSVSVAPGKTARITCGGNNIGSKSVHWYQQKPGQAPVLVIYYDSDRPSGIPERFSGSNSGNTATLTISRVEAGDEADYYCQVWDSSSDHWVFGGGTKLTVL
B17: SEQ ID NOs: 337/341 (HCVR/LCVR) (antibody, V domains shown)
VH: QVQLVQSGAEVKKPGATVKISCKVSGYTFTDYYMHWVQQAPGKGLEWMGLVDPEDGETIYAEKFQGRVTITADTSTDTAYMELSSLRSEDTAVYYCASSDSSGFVGSRGFDYWGQGTRVTVSS
VL: DIQLTQSPSSLSASVGDRVTITCRASQGIRNDLGWYQQKPGKAPKRLIYAASSLQSGVPSRFSGSGSGTEFTLTISSLQPEDFATYYCLQHNSYPPLFGQGTKVEIK
B18: SEQ ID NOs: 477/481 (HCVR/LCVR) (antibody, V domains shown)
VH: QVQLVESGGGVVQPGRSLRLSCAASGFTFSSYAMHWVRQAPGKGLEWVAVISYDGSNKYYADSVKGRFTISRDNSKNTLYLQMNSLRAEDTAVYYCARSASGSYYGAFDYWGQGTLVTVSS
VL: QTVVTQPASVSGSPGQSITISCTGTSSDVGGYNYVSWYQQHPGKAPKLMIYDVSNRPSGVSNRFSGSKSGNTASLTISGLQAEDEADYYCSSYTSSSTLGLYVFGTGTKVTVL
B19: 002_P2C4 (antibody, V domains shown)
VH: QVQLVESGAEVKKPGSSVKVSCKASGGTFSSYGINWVRQAPGQGLEWMGGIIPIFGTANYAQKFQGRVTITTDESTSTAYMELSSLRSEDTAVYYCASFGDDSGDEGVRWGQGTLVTVSS
VL: EIVMTQSPATLSLSPGERATLSCRASQSVSSYLAWYQQKPGQAPRLLIYDASNRATGIPARFSGSGSGTDFTLTISSLEPEDFAVYYCQQRSNWPPYTFGQGTKVEIK
B20: SEQ ID NOs: 305/309 (HCVR/LCVR) (antibody, V domains shown)
VH: EVQLVESGGGLVKPGGSLRLSCAASGFTFGSYSMSWVRQAPGKGLEWVSSISRSSSYIYNADSVRGRLTISRDNAKNSLYLQMNSLRVEDTAVYYCARDQPLPDILTGYYTGPLDYWGQGTLVTVSS
VL: not shown
B21: SEQ ID NOs: 581/585 (HCVR/LCVR) (antibody, V domains shown)
VH: EVQLVESGGGLVQPGRSLRLSCAASGFTFDDYAMHWVRQAPGKGLEWVSGISWNSGSIGYADSVKGRFTISRDSAKNSLYLQMNSLRAEDTALYYCAKVATYYYDRSGYYYGGALDYWGQGTLVTVSS
VL: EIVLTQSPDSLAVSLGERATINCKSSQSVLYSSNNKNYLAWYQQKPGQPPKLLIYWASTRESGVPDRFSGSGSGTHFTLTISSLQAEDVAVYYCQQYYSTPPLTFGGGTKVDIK
B22: SEQ ID NOs: 525/529 (HCVR/LCVR) (antibody, V domains shown)
VH: QVQLQESGPGLVKPSGTLSLTCAVSGGSISSSNWWSWVRQPPGKGLEWIGEIYHSGSSNYNPSLKSRVTISVDKSKNQFSLKLNSVTAADTAVYYCAGRYCSGGRCGWFDPWGQGTLVTVSS
VL: QSVLTQPASVSGSPGQSITISCTGTSSDVGSYNLVSWYQQHPGKAPKLMIYEASKRPSGISNRFSGSKSGNTASLTISGLQAEDEADYYCCSYAGSSTWVFGGGTKPTVL
B23: SEQ ID NOs: 509/513 (HCVR/LCVR) (antibody, V domains shown)
VH: QVQLQQSGPGLVKPSETLPLTCTVSGGSISSSSYYWGWIRQPPGKGLEWIGSVFYSGSTYYNPSLKSRVTISVDTSKNQLSLKLSSVTAADTAVYYCARQVRQWLEDDAFDIWGQGTMVTVSS
VL: DIQLTQSPSSLSASVGDRVTITCRASQGIRNDLGWYQQKPGKAPKRLIYAASSLQSGVPSRFSGSGSGTEFTLTISSLQPEDFATYYCLQHNSYPLTFGGGTKVDIK
B24: SEQ ID NOs: 549/553 (HCVR/LCVR) (antibody, V domains shown)
VH: QVQLVQPGAEVKKPGASVKVSCKASGYTFTSYGISWVRQAPGQGLEWMGWISAYNGDTNYAQKLQGRVTMTTDTSTSTAYMELRSLKSDDTAVYYCARFDYGYPYSSWSVLSIDYWGQGTLVTVSS
VL: DIVMTQSPSSLSASVGDRVTITCRASQGIRNDLGWYQQKPGKAPKRLIYAASSLQSGVPSRFSGSGSGTEFTLTISSLQPEDFATYYCLQHNSYPLTFGGGTKLEIK

The target of one experiment is T1, stabilized prefusion SARS-CoV-2 S ectodomain (SARS-CoV-2 (Wuhan-Hu-1), UniProt P0DTC2 15-1138). Briefly: SPR.
The molecule B1 gave a Kd of no more than 1 nM.

Turning to B2, the Kd was no more than 1 nM.

B3 displayed a Kd of no more than 1 nM.

The molecule B4 showed a Kd of no more than 1 nM.

Consider B5, for which the Kd is no more than 1 nM.

In the case of B6, the Kd was no more than 1 nM.

Molecule B7 displayed a Kd of no more than 1 nM.

In turn, B8 returned a Kd of no more than 1 nM.

The molecule B9 showed a Kd of no more than 1 nM.

As to B10, the Kd is no more than 1 nM.

For B11, the Kd is no more than 1 nM.

For the molecule B12, the Kd is no more than 1 nM.

B13 gave a Kd of no more than 1 nM.

Regarding B14, the dissociation constant (Kd) is no more than 1 nM.

In turn, B15 registered a Kd of no more than 1 nM.

For B16, the Kd was no more than 1 nM.

In turn, B17 yielded a Kd of no more than 1 nM.

The target in the next experiment is T1, stabilized prefusion SARS-CoV-2 S …. The experiment can be described thus: not named there; ELISA in Example 4. On the technique in general: In an ELISA, binding on a coated surface is turned into a signal by an enzyme label.
For the molecule B18, the binding result is “binds”.

As for B19, the binding result is “binds”.

With B20, the binding result was “binds”.

As for B21, the binding result is reported as “binds”.

B22: the binding result is on record as “binds”.

With B23, the binding result is “binds”.

For the molecule B24, the binding result was “binds”.
